Experimental data reported in paper PMC11784022, “An unusual activity of mycobacterial MutT1 Nudix hydrolase domain as a protein phosphatase regulates nucleoside diphosphate kinase function” (Journal of Bacteriology, 2024).

Biological target: the molecule itself
Assay: SDS-PAGE of samples not heated in sample buffer; MsmNDK-Pi (1 µg) in kinase buffer (50 mM Tris-HCl pH 8.0, 50 mM KCl, 10 mM MgCl2), 30°C, mixed with SDS-PAGE sample buffer without heating, 12% SDS-PAGE, Coomassie stain

B1: Mycobacterium smegmatis nucleoside diphosphate kinase (MsmNDK) (enzyme, Mycobacterium smegmatis mc2155, UniProt O85501 1-139, looked up)
chain: MTERTLVLIKPDGVKRQLVGEILSRIERKGLTLAALELKNVSDDLARQHYAEHADKPFFGSLLEFITSGPLVAAIVEGPRAVAAFRQIAGGTDPVEKAVPGTIRGDFALITQDNLVHGSDSPESAAREIALWFPGEATA
notes: Nucleoside diphosphate kinase of Mycobacterium smegmatis mc2155, locus MSMEG_4627; ORF amplified from genomic DNA and cloned into pProEx-Htb between NcoI and HindIII; also called MsmNDK-Pi; source: E. coli M15, purified (Ni-NTA, Superdex-75)
- binding result: binds
